# Source: patent US20060270591A1, “Androgen receptor coregulators” (priority 2002, published 2006)
# How the values were obtained:
# [1] = target: T1, PPAR-γ (Homo sapiens, UniProt P37231); assay: PPAR-γ transactivation reporter assay (PPRE-Luc) with SV; format: cell-based
# T1 sequence (P37231 1-505): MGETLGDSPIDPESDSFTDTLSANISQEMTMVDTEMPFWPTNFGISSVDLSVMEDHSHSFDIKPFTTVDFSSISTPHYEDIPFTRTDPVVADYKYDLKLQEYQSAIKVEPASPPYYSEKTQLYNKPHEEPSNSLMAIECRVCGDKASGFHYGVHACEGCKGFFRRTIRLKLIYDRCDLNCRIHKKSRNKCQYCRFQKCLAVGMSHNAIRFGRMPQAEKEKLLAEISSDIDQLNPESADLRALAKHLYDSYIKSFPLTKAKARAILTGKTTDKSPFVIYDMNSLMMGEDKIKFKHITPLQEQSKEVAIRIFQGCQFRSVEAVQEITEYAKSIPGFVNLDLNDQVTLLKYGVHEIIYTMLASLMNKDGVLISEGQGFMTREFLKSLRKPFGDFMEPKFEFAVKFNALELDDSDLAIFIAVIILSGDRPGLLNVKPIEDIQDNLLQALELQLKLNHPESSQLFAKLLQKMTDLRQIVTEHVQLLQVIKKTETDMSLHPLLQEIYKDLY
# Procedure: 42. […] (A) The interaction of SV with AR, GR, PPAR-γ and ER-α is tested in mammalian two-hybrid assay. One μg plasmids expressing Gal4(DBD)-AR, GR, PPAR-γ or ER-α was co-transfected with 4 μg plasmids expressing VP16 or VP16-SVn to COS-1 cells. […] The assay method was the same as described in FIG. 29. Relative activities of ligand treatment to EtOH treatment are shown. (B) The coactivation function of SV in different receptors was assayed using reporter gene study. MMTV-Luc, PPRE-Luc, ERE-Luc are the reporter genes for AR, GR, PPAR-γ, and ER-α respectively. Lanes 1, 5, 9 and 13 are regarded as 1 fold in each panel.
# 475. In AR transactivation activity assays, transfections were performed using SuperFect (Qiagen, Chatsworth, Calif.) following protocols described in manual provided by Qiagen. Briefly, cells were plated on 35 mm dishes and after 24 h were transfected using the SuperFect kit. The total DNA amount was adjusted to 2 μg with pSG5 or pEGFP vectors. The medium was changed to DMEM with 10% CD-FBS 2 h after transfection. After 24 h, the DMEM with 10% CD-FBS was changed again, and the cells were treated with various steroids. Cells were harvested after 24 h for dual-luciferase assay as described in protocol provided by Promega. At least three independent experiments were carried out in each case.
# [2] = target: T2, AR N-terminus and AR C-terminus (Homo sapiens, UniProt P10275); assay: Mammalian two-hybrid assay of AR N-C interaction in PC-3 cells; format: cell-based; settings: DHT
# T2 construct: AR DBD plus LBD (GST-AR-DL); expressed in transfected cells; host or cells: PC-3 cells (human prostate cancer line)
# T2 sequence (P10275 555-920 limits assumed): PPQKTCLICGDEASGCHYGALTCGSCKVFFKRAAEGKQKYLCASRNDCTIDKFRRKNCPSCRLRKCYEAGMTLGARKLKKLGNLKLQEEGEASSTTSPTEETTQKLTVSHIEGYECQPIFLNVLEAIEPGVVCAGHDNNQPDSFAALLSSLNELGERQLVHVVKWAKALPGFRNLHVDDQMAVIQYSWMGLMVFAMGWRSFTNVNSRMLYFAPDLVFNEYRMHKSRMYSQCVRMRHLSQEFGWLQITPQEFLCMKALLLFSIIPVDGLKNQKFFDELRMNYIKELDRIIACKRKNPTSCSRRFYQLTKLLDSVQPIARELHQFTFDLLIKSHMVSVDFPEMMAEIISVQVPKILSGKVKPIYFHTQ
# T2 sequence (P10275 1-559 partner limits assumed): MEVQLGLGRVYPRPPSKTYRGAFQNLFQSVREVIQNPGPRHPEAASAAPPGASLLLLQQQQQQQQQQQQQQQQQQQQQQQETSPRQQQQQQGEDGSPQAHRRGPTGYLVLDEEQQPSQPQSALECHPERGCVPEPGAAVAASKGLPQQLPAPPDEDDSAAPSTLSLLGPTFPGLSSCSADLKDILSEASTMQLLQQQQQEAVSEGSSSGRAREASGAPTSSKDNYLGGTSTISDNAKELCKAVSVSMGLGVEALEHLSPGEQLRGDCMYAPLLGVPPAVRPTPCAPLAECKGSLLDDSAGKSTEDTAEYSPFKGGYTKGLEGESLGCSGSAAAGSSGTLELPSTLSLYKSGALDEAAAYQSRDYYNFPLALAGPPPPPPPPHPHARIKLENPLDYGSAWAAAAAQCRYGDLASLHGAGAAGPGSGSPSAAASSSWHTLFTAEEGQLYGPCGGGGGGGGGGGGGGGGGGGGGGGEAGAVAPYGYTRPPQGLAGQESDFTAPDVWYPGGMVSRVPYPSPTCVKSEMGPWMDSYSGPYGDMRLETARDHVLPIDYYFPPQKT
# Procedure: 44. […] PC-3 cells were transfected with 30 ng plasmids expressing Gal4(DBD)-AR-DL, VP16 or VP16-ARN combined with 1.5 μg pSG5, pSG5-bSV, -ARA55, or -SRC-1α as indicated. The reporter plasmid pG5-Luc (0.5 μg) and control plasmid pRL-Luc (1 ng) were transfected to every sample. The assay was carried out as described in FIG. 29C.
# 474. Mouse myoblast cell line (C2C12), human prostate cancer cell lines (PC-3 and DU145), and monkey kidney fibroblast cell line (COS-1) were maintained in Dulbecco's minimum essential medium (DMEM) containing penicillin (25 units/ml), streptomycin ([…]), and 10% fetal bovine serum (FBS). In mammalian two-hybrid assay, transfections were performed using the calcium phosphate precipitation method as described previously (15). Briefly, 1.5-3×10^5 cells were plated on 35-mm dishes for 24 h, and the medium was changed to DMEM containing 10% charcol-dextran stripped FBS (CD-FBS) 2 h before transfection. Cells were transfected with 0.5 μg plasmids expressing Gal4(DBD) and VP-16 fusion proteins as indicated. Gal4 response element controlled Firefly luciferase expression plasmid, pG5-Luc, was used as reporter gene. A Renilla luciferase expression plasmid pRL-SV40 was used as an internal control for transfection efficiency. The total amount of DNA was adjusted to 5 μg with pCMX-VP16 vectors. […]
substance,measurement,setting,value
"SV: supervillin, 205 kDa actin binding protein; bovine SV (a.a. 1-1792) used in reporter assays",effect on the transactivation of PPAR-γ,[1],little effect
same,effect on AR N-C interaction,[2],mild suppressive effect
